Target: histone H4 (in the NCP), unmodified at K20 (human, UniProt P62805 1-103)
Assay: cryo-EM structure

binding result: binds
B1: BARD1 (ARD–BRCT), residues 415–777, as tethered to the NCP in BARD1^AB–NCPub (domain or fragment)
chain: KLLPNMAVKRNHRGETLLHIASIKGDIPSVEYLLQNGSDPNVKDHAGWTPLHEACNHGHLKVVELLLQHKALVNTTGYQNDSPLHDAAKNGHVDIVKLLLSYGASRNAVNIFGLRPVDYTDDESMKSLLLLPEKNESSSASHCSVMNTGQRRDGPLVLIGSGLSSEQQKMLSELAVILKAKKYTEFDSTVTHVVVPGDAVQSTLKCMLGILNGCWILKFEWVKACLRRKVCEQEEKYEIPEGPRRSRLNREQLLPKLFDGCYFYLWGTFKHHPKDNLIKLVTAGGGQILSRKPKPDSDVTQTINTVAYHARPDSDQRFCTQYIIYEDLCNYHPERVRQGKVWKAPSSWFIDCVMSFELLPLDS

Reference: PMC8680157 (Nature, 2021)
